Biological target: Spike of SARS-CoV-2 reference D614G strain (hCoV-19/France/GE1973/2020) (SARS-CoV-2, UniProt P0DTC2 14-1273)
Assay: cell-based or functional assay

B1: Cv2.3132 IgG antibody (antibody, V domains shown)
VH: EVQLVESGGGLVKPGGSLRLSCAASGFTFSDYYMSWIRQAPGKGLEWVSYISSSGSVQYYADSVKGRFTISRDNAKNSLYLQMNSLRAEDTAVYYCARYYYDSSGYWKRLDYWGQGTLVTVSS
VL: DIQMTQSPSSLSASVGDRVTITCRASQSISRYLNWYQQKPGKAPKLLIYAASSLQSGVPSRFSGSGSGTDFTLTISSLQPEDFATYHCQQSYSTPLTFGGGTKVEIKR
notes: also called anti-HR2 antibody Cv2.3132
  IC50, S-Fuse neutralization assay: 35.4 mg/L

Reference: patent publication EP4442276A1 (INSTITUT PASTEUR, dated 2024)
